Reference: patent publication EP4223783A2 (dated 2023)

B1: Anti-CD-52 2C3 A114N mutant antibody (antibody, human IgG1, kappa)
heavy: not shown
light: DIVMTQTPLSLSVTPGQPASISCKSSQSLLYSNGKTYLNWLLQKPGQSPQRLIYLVSKLDSGVPDRFSGSGSGTDFTLKISRVEAEDVGVYYCVQGTHLHTFGQGTRLEIKRTVAAPSVFIFPPSDEQLKSGTASVVCLLNNFYPREAKVQWKVDNALQSGNSQESVTEQDSKDSTYSLSSTLTLSKADYEKHKVYACEVTHQGLSSPVTKSFNRGEC
modifications: additional N-linked glycan at the engineered Asn 114 (Kabat)
notes: Full-length IgG1; mutated heavy chain with the WT 2C3 light chain
B2: Anti-CD-52 2C3 NGT mutant antibody (antibody, human IgG1, kappa)
heavy: not shown
light: B1 light
notes: Full-length IgG1; NGT added to the C-terminus of the heavy chain; WT 2C3 light chain; also called Add NGT to C-terminal
B3: Anti-CD-52 2C3 S440N mutant antibody (antibody, IgG1)
heavy: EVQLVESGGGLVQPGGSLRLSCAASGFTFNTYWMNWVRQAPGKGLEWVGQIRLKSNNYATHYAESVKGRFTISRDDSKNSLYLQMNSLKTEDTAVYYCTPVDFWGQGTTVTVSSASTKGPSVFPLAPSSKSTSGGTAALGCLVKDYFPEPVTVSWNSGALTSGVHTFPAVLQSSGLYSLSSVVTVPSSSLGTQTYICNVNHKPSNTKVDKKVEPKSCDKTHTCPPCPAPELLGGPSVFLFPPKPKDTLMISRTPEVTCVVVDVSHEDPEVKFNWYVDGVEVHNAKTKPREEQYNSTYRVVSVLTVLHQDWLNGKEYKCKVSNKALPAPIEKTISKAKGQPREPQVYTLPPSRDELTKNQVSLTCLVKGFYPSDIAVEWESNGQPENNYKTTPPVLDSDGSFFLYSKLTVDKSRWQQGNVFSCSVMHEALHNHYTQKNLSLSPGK
light: B1 light
notes: as for B1
B4: Anti-CD-52 2C3 S298N/Y300S mutant antibody (antibody, human IgG1, kappa)
heavy: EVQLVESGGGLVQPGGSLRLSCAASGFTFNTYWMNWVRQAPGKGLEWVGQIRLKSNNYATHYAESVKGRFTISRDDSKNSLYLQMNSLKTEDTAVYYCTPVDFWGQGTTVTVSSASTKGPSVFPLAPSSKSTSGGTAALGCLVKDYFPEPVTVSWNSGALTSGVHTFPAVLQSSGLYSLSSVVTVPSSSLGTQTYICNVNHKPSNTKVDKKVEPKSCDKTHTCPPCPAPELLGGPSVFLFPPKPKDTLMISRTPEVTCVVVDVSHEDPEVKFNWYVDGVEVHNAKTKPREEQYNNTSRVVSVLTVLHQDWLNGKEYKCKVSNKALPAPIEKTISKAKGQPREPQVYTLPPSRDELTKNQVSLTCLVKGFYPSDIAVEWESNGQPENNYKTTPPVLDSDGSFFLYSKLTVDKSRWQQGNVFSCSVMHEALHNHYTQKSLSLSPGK
light: B1 light
notes: Full-length IgG1; also called S298N/Y300S 2C3 variant; S298/Y300S
B5: Anti-CD-52 2C3 S442N mutant antibody (antibody, IgG1)
heavy: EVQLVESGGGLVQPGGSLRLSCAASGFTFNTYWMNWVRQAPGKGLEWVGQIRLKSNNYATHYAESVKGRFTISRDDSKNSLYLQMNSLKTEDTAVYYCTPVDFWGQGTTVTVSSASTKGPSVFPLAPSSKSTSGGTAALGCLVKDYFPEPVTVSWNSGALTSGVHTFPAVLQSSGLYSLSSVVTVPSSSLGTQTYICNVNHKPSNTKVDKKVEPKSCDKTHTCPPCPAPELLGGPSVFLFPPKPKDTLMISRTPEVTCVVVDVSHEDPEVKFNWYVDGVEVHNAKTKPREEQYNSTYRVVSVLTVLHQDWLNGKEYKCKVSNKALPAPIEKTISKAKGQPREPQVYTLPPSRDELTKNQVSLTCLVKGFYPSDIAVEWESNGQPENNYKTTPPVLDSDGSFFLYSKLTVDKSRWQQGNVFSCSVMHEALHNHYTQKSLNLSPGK
light: B1 light
notes: as for B1

Target: T1, SEC-purified human FcRn-HPC4 (human, UniProt P55899 24-297; P61769 21-119)
T1 construct: Immobilized on a CM5 chip by amine coupling; also called human FcRn receptor; not shown: HPC4 tag
Test: Biacore SPR; antibody at 200, 50 and 10nM over immobilized FcRn

Binding result, binds:
B1, B2, B3, B4, B5
